Series [1] is described as follows: cycloheximide chase, immunoblot.
Series [2] can be described thus: immunoblot of endogenous CCDC88C, BT549. To be noted: glycan gained; control: empty vector.
A short description of series [3]: immunoblot of endogenous CCDC88C. To be noted: glycan lost; control: negative control siRNA. (A western blot detects proteins with antibodies after separation by electrophoresis.)

In publication PMC11227718 one finds degradation_or_half_life and expression_or_secretion data, which are given here for 2 substances.

“Coiled-coil domain containing 88C (CCDC88C, Daple): GALNT6 overexpression”: the degradation_or_half_life result in series [1] (glycan gained, control: empty vector) is reported as “increases”. Further, in series [2], the expression_or_secretion entry was “increases”.

With “Coiled-coil domain containing 88C (CCDC88C, Daple): si-GALNT6”, the degradation_or_half_life entry in series [1] (glycan lost, control: negative control siRNA) was “decreases”. Moreover, the expression_or_secretion entry in series [3] was “decreases”.
